# From the supplement of paper PMC9732359
# ± gives the uncertainty stated by the source.
# Experiment: protein stability index of a GFP-peptide fusion (yeast GPS) (PSI 1-4); higher = more stable; sorted into four equal gates, so the index is relative within each strain
# Settings: pdr5∆
# Method in brief: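 For each peptide, the protein stability index sums the read frequency in every gate after multiplying it by the gate number. Read frequencies came from plasmids that were PCR-amplified from each gate and Illumina-sequenced, with reads assigned to strains by barcodes. The gates were four equal bins of GFP/Cherry fluorescence ratio applied to mid-log yeast in leucine-free medium carrying a pooled library of tiled 17-residue yeast protein peptides fused downstream of GFP on a Cherry-expressing plasmid.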
row,Sequence,protein stability index
1,LERVKANAAKRAEAKAQ [RPL21A],3.25 ± 0.12
2,LESEAQKKATMSAEEAL [RPC34],3.26 ± 0.14
3,LESINEGNQIIVFVHSR [BRR2],1.88 ± 0.064

# Same assay, conditions: san1∆
row,Sequence,protein stability index
1,KREEKAMTIYWDDHTKK [CDC53],3.45 ± 0.072
2,KRFMNTSQNPQRDAEIS [BRR2],3.12 ± 0.1
3,KRHRSSYYDNDLDETTQ [YML031W/NDC1],2.68 ± 0.053
4,KRINFEKIKDIHNTKLP [POP1],2.87 ± 0.28
5,KRITQITIEPGVDVEVV [RPS20],2.81 ± 0.15
6,KRKWSYVLYAKIVVLSR [RRP43],1.87 ± 0.11
7,KRKYDEITHPPSTTDDE [SWI3],3.18 ± 0.071
8,KRKYLDIPIDEMTLPTS [SSN2],2.77 ± 0.19
9,KRQAYAVSEKAGHQTSA [RPL4A],1.65 ± 0.12
10,KRQELEEASQQQQLQQN [MED2],2.48 ± 0.059
11,KRTRLESLKNLNESRSQ [SMC3],2.61 ± 0.071
12,KRVVVPQALRVLRLKPG [RPL16A],3.15 ± 0.056
13,KSAEGNNIDQSLILKES [YAR002W/NUP60],2.61 ± 0.096
14,KSDEGGSYLCTSSTPSP [YOR098C/NUP1],2.7 ± 0.067
15,KSGTSHDAIFSIYKYIH [SNF12],2.34 ± 0.068
16,KSHVLLATPVQFELLSR [BRR2],2.02 ± 0.066
17,KSIMDGIHDGHIKKLLH [FAS1],1.37 ± 0.075
18,KSIQDIVGLATLIVNTD [SRP21],2.93 ± 0.039
19,KSIRKDTVEEKKEEKLN [SIR4],3.17 ± 0.065
20,KSMELFYDIRSLLERHI [YJL039C/NUP192],2.91 ± 0.04
21,KSPSLTAQKYPIYTGDG [YMR153W/NUP53],2.08 ± 0.069
22,KSRMINFLDAPGHVNFM [SNU114],3.06 ± 0.12
23,KSSDSNDSNPSFSFSIP [YLR335W/NUP2],2.31 ± 0.058
24,KTCQWYSEHLKPYDINV [DIS3],2.74 ± 0.094
25,KTIVTGGNGPEDFQQHE [RPO26],3.32 ± 0.056

row,Sequence,protein stability index
1,KTKILEVAIRDVNLDVR [IRR1],2.38 ± 0.057
2,KTLIGLQGIVIWDSQKF [POP4],2.17 ± 0.071
3,KTPNRSSTPKFTKKPVT [SIR4],2.91 ± 0.056
4,KTPVFTTGGDYILSLVS [YMR129W/POM152],1.74 ± 0.064
5,KTQEYYTQYTNDYLEKH [CDC53],2.96 ± 0.049
6,KTRFKGSQFIVVSLKEG [SMC2],3.35 ± 0.069
7,KTSKDIAVLRSKEWFQL [FAS1],1.91 ± 0.046
8,KTTDHLFDAAFYMKKDA [RPO31],3.21 ± 0.05
9,KTTPNTASSEASAGSKE [YMR153W/NUP53],3.16 ± 0.046
10,KTYKEGINKNEEYRKQL [SMC1],2.31 ± 0.077
11,KTYNCLHEKYLTEGGSI [SMC1],2.52 ± 0.076
12,KVDIFEIPETGEYSVKL [FAS2],3.27 ± 0.046
13,KVFDTLTRFSHDADLEV [RPN1],2.44 ± 0.063
14,KVGEDIAKATKEFKGIK [RPL12A],3.25 ± 0.15
15,KVGQFDQVLNLCLTEFE [FAS1],2.73 ± 0.06
16,KVKLFHGILDDLETSLS [MED2],3.14 ± 0.072
17,KVLEMKNLKDTASVEKA [YIL149C/MLP2],3.08 ± 0.098
18,KVNPNIMNMIENVEKKE [SMC2],2.36 ± 0.13
19,KVSSLKMFIQRILAMCV [YCS4],2.23 ± 0.063
20,KVVGPRGTLTKNLKHID [RPL9A],2.8 ± 0.086
21,KWAGIKTRKFVFNPPKP [CYT1],3.05 ± 0.17
22,KWEQTYKKPTGGIVTVR [FAS1],2.2 ± 0.1
23,KYKSGGKFSFSPLQKEE [SSN2],1.46 ± 0.15
24,KYKSNTNNMEKIIEDLR [SMC2],3.23 ± 0.034
25,KYLGLKPGSIDAISQVI [FAS1],2.91 ± 0.048

row,Sequence,protein stability index
1,KYVHVSEVGNCSGSGMG [FAS2],2.92 ± 0.051
2,LAFDKLNVPVFQIVIEP [ARP7],1.8 ± 0.079
3,LAKERQKLWLLECQLFP [SSN8],1.47 ± 0.1
4,LAKKWFLQHPDEEYPVK [PRP8],3.26 ± 0.094
5,LAKPVFHVGFIAKIKKV [RPO21],1.78 ± 0.073
6,LALALGILYMGQGEQVD [RPN1],1.45 ± 0.13
7,LALGSHNKLIQFGNACI [SSN2],2.2 ± 0.13
8,LANEERLSNEMHALKNR [RGR1],3.4 ± 0.059
9,LANRSKENFILDSLMKT [YJL039C/NUP192],3.03 ± 0.12
10,LARRTDAPFNKVVLKAL [RPL18A],1.18 ± 0.12
11,LASKIKQYERLRFYKDT [RRI1],1.97 ± 0.077
12,LASRNKWDDLNEQLTLL [RPN5],3.26 ± 0.056
13,LAVEDKPSPIDSGIGSN [CSL4],3.06 ± 0.052
14,LAVKVHGGSRYATKDGV [QCR2],1.17 ± 0.26
15,LAVSTILGKNFDSVIVE [SMC1],2.44 ± 0.056
16,LCHPKKEKYGLAVSTIL [SMC1],2.23 ± 0.091
17,LCLMTWKEVMFDPSKDV [CDC53],2.83 ± 0.097
18,LCQKSPVMADLNGGLQF [FAS2],2.94 ± 0.14
19,LCRNPLTSGLLYSYLIK [YJL039C/NUP192],1.67 ± 0.088
20,LDALVDCENFFNYVQEC [YJL039C/NUP192],3.44 ± 0.079
21,LDDEKIFSQTTNSTYNP [YJL039C/NUP192],2.91 ± 0.062
22,LDDLQVILAKNENETRD [PGD1],2.93 ± 0.14
23,LDEDDTNDGIERYSDKY [RPC31],3.22 ± 0.11
24,LDERGHEKIEDEDEDND [RPN4],3.48 ± 0.13
25,LDGELDFDDFLKLGLVE [RET1],2.81 ± 0.13

row,Sequence,protein stability index
1,LDGVSYLHQNWVLHRDL [SSN3],2.77 ± 0.19
2,LDKDRKALIQRKGGKLE [RPL26A],3.12 ± 0.09
3,LDKLNCAINSKSRGSDL [RRP6],2.79 ± 0.042
4,LDLAGPLLAQLFKTLFK [RPB2],1.25 ± 0.078
5,LDNMTYSSVAGTVSRVN [RRP4],2.23 ± 0.051
6,LDPLARVSKDKKSGSLT [FAS2],3.22 ± 0.084
7,LDPLTKDPVDFVRQAAM [RPN2],3.17 ± 0.2
8,LDPYERAIYSYLSGAIP [YDL116W/NUP84],3.13 ± 0.098
9,LDSGDDQPQSSEAKRTK [BRR2],3.25 ± 0.048
10,LDSTGFDSTAFNATVDE [MED2],3.06 ± 0.053
11,LDTQLNDLRVSLNEKNA [SMC1],3.41 ± 0.064
12,LDVTKEAQANLLTAKHG [RPO21],2.8 ± 0.19
13,LDYQETYVEELFPIVKK [YJL039C/NUP192],2.87 ± 0.1
14,LDYQIGNSESKVEKGVN [LIN1],2.92 ± 0.15
15,LEAARSEKQNDEEAAGA [PRP8],2.61 ± 0.2
16,LEAPVKSIENPTQTKGN [YLR335W/NUP2],3.15 ± 0.051
17,LEDPYKYHYKEEWLNTK [CSN9],2.83 ± 0.065
18,LEDYVPHQSPDATRVFV [RPB2],2.97 ± 0.04
19,LEEIRGNPLSIGTLEEI [RPT2],3.13 ± 0.076
20,LEGEEIKSEEKKGKSSD [RPN1],3.05 ± 0.084
21,LEKERSILDDIKLSLKD [SMC4],2.43 ± 0.17
22,LENSSRSPRVVTNALDN [NUT1],2.279 ± 0.016
23,LEQLAQHTTESDNISRK [RPB2],3.01 ± 0.076
24,LERVKANAAKRAEAKAQ [RPL21A],3.36 ± 0.061
25,LESEAQKKATMSAEEAL [RPC34],3.04 ± 0.092
